Assay results reported in article PMC6979384, “Characterization of the plant homeodomain (PHD) reader family for their histone tail interactions” (Epigenetics & Chromatin, 2020).

B1: DPF2 (PPC2W2): GST-tagged Dual PHD + C2W2 finger, 190-391 (protein)
chain: VGSARKKLDASILEDRDKPYACDICGKRYKNRPGLSYHYAHSHLAEEEGEDKEDSQPPTPVSQRSEEQKSKKGPDGLALPNNYCDFCLGDSKINKKTGQPEELVSCSDCGRSGHPSCLQFTPVMMAAVKTYRWQCIECKCCNICGTSENDDQLLFCDDCDRGYHMYCLTPSMSEPPEGSWSCHLCLDLLKEKASIYQNQNSS
modifications: GST tag
B2: PHRF1 (RP): GST-tagged RING + PHD, 90-250 (protein)
chain: QGKLEAAGSFNSDDDAESCPICLNAFRDQAVGTPENCAHYFCLDCIVEWSKNANSCPVDRTLFKCICIRAQFGGKILRKIPVENTKASEEEEDPTFCEVCGRSDREDRLLLCDGCDAGYHMECLDPPLQEVPVDEWFCPECAAPGVVLAADAGPVSEEEVS
modifications: GST tag
B3: CHD4 (PPCC): GST-tagged Dual PHD + Dual Chromo, 350-710 (protein)
chain: KKKKKGEEEVTAVDGYETDHQDYCEVCQQGGEIILCDTCPRAYHMVCLDPDMEKAPEGKWSCPHCEKEGIQWEAKEDNSEGEEILEEVGGDLEEEDDHHMEFCRVCKDGGELLCCDTCPSSYHIHCLNPPLPEIPNGEWLCPRCTCPALKGKVQKILIWKWGQPPSPTPVPRPPDADPNTPSPKPLEGRPERQFFVKWQGMSYWHCSWVSELQLELHCQVMFRNYQRKNDMDEPPSGDFGGDEEKSRKRKNKDPKFAEMEERFYRYGIKPEWMMIHRILNHSVDKKGHVHYLIKWRDLPYDQASWESEDVEIQDYDLFKQSYWNHRELMRGEEGRPGKKLKKVKLRKLERPPETPTVDPTV
modifications: GST tag
B4: TRIM66 (PB): GST-tagged PHD + Bromo, 966-1216 (protein)
chain: APIENEDFCAVCLNGGELLCCDRCPKVFHLSCHVPALLSFPGGEWVCTLCRSLTQPEMEYDCENACYNQPGMRASPGLSMYDQKKCEKLVLSLCCNNLSLPFHEPVSPLARHYYQIIKRPMDLSIIRRKLQKKDPAHYTTPEEVVSDVRLMFWNCAKFNYPDSEVAEAGRCLEVFF
modifications: GST tag
B5: CHD5 (PPCC): GST-tagged Dual PHD + Dual Chromo, 330-670 (protein)
chain: KRIDDGDGYETDHQDYCEVCQQGGEIILCDTCPRAYHLVCLDPELEKAPEGKWSCPHCEKEGIQWEPKDDDDEEEEGGCEEEEDDHMEFCRVCKDGGELLCCDACPSSYHLHCLNPPLPEIPNGEWLCPRCTCPPLKGKVQRILHWRWTEPPAPFMVGLPGPDVEPSLPPPKPLEGIPEREFFVKWAGLSYWHCSWVKELQLELYHTVMYRNYQRKNDMDEPPPFDYGSGDEDGKSEKRKNKDPLYAKMEERFYRYGIKPEWMMIHRILNHSFDKKGDVHYLIKWKDLPYDQCTWEIDDIDIPYYDNLKQAYWGHRELMLGEDTRLPKRLLKKGKKLRDDK
modifications: GST tag

Assay: dCypher AlphaScreen Phase A, optimal reader concentration range
Format: binding
Settings: 100 nM biotinylated peptide; 30 min + 60 min at 23 °C; AlphaLISA; n = 2
Experimental: Fig. 3 dCypher histone peptide-binding assays define the PTM recognition preference of PHD proteins with high sensitivity. a–h Binding curves to determine optimal reader protein concentration for full peptide library screening on the dCypher® AlphaScreen® platform (see “Methods”). X-axes are log(protein concentration (M)) at constant peptide concentration (100 nM); Y-axes are AlphaScreen counts, representing relative strength of binding (n = 2; error bars are S.D.). i Heat map represents relative binding to H3 N-terminal peptides (left) by PHD-containing GST-tagged proteins (top) using the dCypher AlphaScreen platform. Protein concentrations can be found in Additional file 5: Table S4. Binding strength is indicated by color gradient from green to yellow (stronger to weaker). The asterisk (*) by MLL5 signifies its general preference for H3K4 methylation. Alpha counts (n = 2) were normalized individually for each protein to the highest signal for each respective assay. For full dCypher peptide screen data, see Additional file 4: Table S3
We next employed a highly sensitive proximity-based AlphaScreen histone peptide assay (dCypher®) to provide a third and orthogonal approach to analyzing the histone binding preferences for a subset of the 31 PHD proteins with respect to various histone tail PTMs. In this assay, biotinylated peptides are bound to streptavidin “donor” beads and the GST-tagged reader domains bound to Glutathione “acceptor” beads. The donor beads are excited by 680 nm light, releasing a singlet oxygen which causes light emission (520–570 nm) in proximal acceptor beads (within 200 nm); emission intensity is then correlated to binding strength. […] Additionally, we examined several well characterized PHD–PTM interactors [DIDO1, KDM7A, and DPF2 (PPC2W2)] for positive controls and to provide a benchmark. Initial binding assays were conducted for each fusion protein using three peptides [H3 (1–20) with K4me0, H3K4me3 or H3K9me3] to determine the optimal reader domain concentration for full peptide library studies (Fig. 3a–h; Additional file 4: Table S3 and Additional file 5: Table S4). This is an important first step as signal often declined after query protein saturation (the ‘hook point’, caused by excess free query competing with bead bound).
The dCypher peptide screen assay was performed as previously described. Briefly, 5 μL of GST-tagged reader domains (optimal protein concentration for library screening determined by initial binding curves to candidate peptides) were incubated with 5 μL of 400 nM (100 nM Final) biotinylated histone peptides (EpiCypher) for 30 min at 23 °C in 1× AlphaLISA Epigenetics buffer + epigenetics buffer supplement (PerkinElmer, AL1008) in a 384-well plate. […] Plates were incubated at 23 °C in subdued lighting for 60 min and AlphaLISA signal measured on a PerkinElmer 2104 EnVision (680 nm laser excitation, 570 nm emission filter ± 50 nm bandwidth).
Supplementary file 13072_2020_328_MOESM4_ESM.xlsx: Additional file 4: Table S3. dCypher Results. Excel Tab Peptide Phase A is a compiled set of binding data: chromatin reader titration vs. several peptide targets. […] Excel Tab Peptide Phase B is a compiled set of binding data: chromatin reader at optimized concentrations vs. entire 293 peptide library. […]

| Molecule | Phase A Optimal Range (reader concentration) |
| --- | --- |
| B1 | 0.05 to 1 nM |
| B2 | 5 to 30 nM |
| B3 | 0.45 to 10 nM |
| B4 | 0.5 to 10 nM |
| B5 | 1 to 35 nM |
